In patent US10920265B2, “Compounds and methods for detection of enzymes that remove methyl succinyl groups from epsilon-amino lysine moieties” (Enzo Life Sciences, Inc., priority 2011, dated 2021):

Substrate: CC(=O)N[C@@H](CCCCNC(=O)CCC(=O)O)C(=O)Nc1ccc2c(C)cc(=O)oc2c1
Assay: SIRT5 desuccinylation/deacetylation of fluorogenic lysyl substrates, trypsin developer
Assay type: biochemical, human
Conditions: other: varied substrate: Lysyl, 1 mM NAD^+, 10 ng SIRT5, 20 min. at 37° C., pH 8.0
Protocol: FIG. 3 is graphs showing that SIRT5 catalyzes NAD^+-dependent desuccinylation of Ac-Lys(ε-succinyl)-AMC far more efficiently than NAD^+-dependent deacetylation of Ac-Arg-His-Lys-Lys(ε-acetyl)-AMC. Fifty μl reactions in Assay Buffer (50 mM Tris/HCl, pH 8.0, 137 mM NaCl, 2.7 mM KCl, 1 mM MgCl2, 1 mg/ml BSA) included 50 μM of either Ac-Lys(ε-succinyl)-AMC or Ac-Arg-His-Lys-Lys(ε-acetyl)-AMC, and, where indicated, 500 μM NAD^+ and 5 μg recombinant human SIRT5 (Enzo Life Sciences Cat. # BML-SE555). […] AMC fluorescence was read in a Cytofluor II plate-reading fluorimeter (Perseptive Biosystems) at wavelengths 360 nm (excitation)/460 nm (emission), Gain 54. Data represent the mean of two (No Enzyme) or three (+SIRT5) determinations and error bars the standard deviations. Panels A and B present the same data, but with the +SIRT5/+NAD^+/Ac-Lys(ε-succinyl)-AMC bar omitted from B to show the detail on the remaining bars. Statistically significant differences (Student's t-test) are indicated by asterisks as follows: *: p<0.02 vs. corresponding No Enzyme control; **: p<0.001 vs. corresponding −NAD^+ control; ***: p<3×10^−6 vs. both No Enzyme and −NAD^+ controls.
FIG. 4 is a graph showing that Ac-Lys(Succ.)-AMC enables SIRT5 assay at low enzyme concentrations. Fifty μl reactions in Assay Buffer (50 mM Tris/HCl, pH 8.0, 137 mM NaCl, 2.7 mM KCl, 1 mM MgCl2, 1 mg/ml BSA) included 2 or 10 μM Ac-Lys(ε-succinyl)-AMC, 500 μM NAD^+ and, where indicated, 5 ng recombinant human SIRT5 (Enzo Life Sciences Cat. # BML-SE555). […] AMC fluorescence was read in a Synergy 2 plate-reading fluorimeter (BioTek) at wavelengths 360 nm (excitation)/460 nm (emission), Gain 40. Data represent the mean of two (No Enzyme) or three (5 ng SIRT5) determinations and error bars the standard deviations. Statistically significant differences (Student's t-test) are indicated by asterisks as follows: *: p=0.002; **: p=0.009, each with respect to the corresponding “No SIRT5” samples.
FIG. 5 is graphs showing dependence of SIRT5 initial rate kinetics on the concentrations of Ac-Lys(Succ.)-AMC and Ac-Lys(Ac.)-AMC. Fifty μl desuccinylation or deacetylation reactions were performed as described earlier (FIG. 4), with the indicated concentrations of Ac-Lys(Succ.)-AMC or Ac-Lys(Ac.)-AMC and 1 mM NAD^+, for 20 min. at 37° C. Reactions with Ac-Lys(Succ.)-AMC contained 10 ng SIRT5 and those with Ac-Lys(Ac.)-AMC contained 5 SIRT5. […] AMC fluorescence was read in a Synergy 2 plate-reading fluorimeter (BioTek) at wavelengths 360 nm (excitation)/460 nm (emission), Gain 40. […] Fluorescence differences were converted to specific activities (pmol/min/μg) by measuring the fluorescence increase due to the addition a standard solution of AMC (5 μl of a […]). […]

B1: recombinant human SIRT5 (Homo sapiens) (protein)
chain: SSSMADFRKFFAKAKHIVIISGAGVSAESGVPTFRGAGGYWRKWQAQDLATPLAFAHNPSRVWEFYHYRREVMGSKEPNAGHRAIAECETRLGKQGRRVVVITQNIDELHRKAGTKNLLEIHGSLFKTRCTSCGVVAENYKSPICPALSGKGAPEPGTQDASIPVEKLPRCEEAGCGGLLRPHVVWFGENLDPAILEEVDRELAHCDLCLVVGTSSVVYPAAMFAPQVAARGVPVAEFNTETTPATNRFRFHFQGPCGTTLPEALACHENETVS
notes: purchased Enzo Life Sciences BML-SE555
**Q.** Which Km does the source give for B1 here?
**A.** The Km was 108 µM.

**Q.** And the Vmax?
**A.** Its Vmax is 490 pmol/min/µg.

**Q.** And the kcat?
**A.** The kcat was 0.26 s⁻¹.

**Q.** And the kcat/Km?
**A.** Its kcat/Km is 2450 M⁻¹ s⁻¹.
